Experimental data from patent publication US20030059436A1, “Band 3 antigenic peptides, malaria polypeptides and uses thereof” (priority 2001, published 2003).
Ends that are not written are not given here.

Legend:
[1] = target: mouse erythroid Band 3 protein on wild-type mouse RBCs (mouse) (UniProt P04919); test: 32P-MSP119 on intact Band 3 (-/-) mouse RBCs against untreated wild-type mouse RBCs in suspension
[2] = target: human erythroid Band 3 protein (Anion Exchanger 1) on human RBCs (human) (UniProt P02730); test: 32P-MSP119 on intact human RBCs in suspension; RBCs treated with neuraminidase, against untreated RBCs
Sequence of human erythroid Band 3 protein (Anion Exchanger 1) on human RBCs (human) (P02730 whole entry, form in doubt): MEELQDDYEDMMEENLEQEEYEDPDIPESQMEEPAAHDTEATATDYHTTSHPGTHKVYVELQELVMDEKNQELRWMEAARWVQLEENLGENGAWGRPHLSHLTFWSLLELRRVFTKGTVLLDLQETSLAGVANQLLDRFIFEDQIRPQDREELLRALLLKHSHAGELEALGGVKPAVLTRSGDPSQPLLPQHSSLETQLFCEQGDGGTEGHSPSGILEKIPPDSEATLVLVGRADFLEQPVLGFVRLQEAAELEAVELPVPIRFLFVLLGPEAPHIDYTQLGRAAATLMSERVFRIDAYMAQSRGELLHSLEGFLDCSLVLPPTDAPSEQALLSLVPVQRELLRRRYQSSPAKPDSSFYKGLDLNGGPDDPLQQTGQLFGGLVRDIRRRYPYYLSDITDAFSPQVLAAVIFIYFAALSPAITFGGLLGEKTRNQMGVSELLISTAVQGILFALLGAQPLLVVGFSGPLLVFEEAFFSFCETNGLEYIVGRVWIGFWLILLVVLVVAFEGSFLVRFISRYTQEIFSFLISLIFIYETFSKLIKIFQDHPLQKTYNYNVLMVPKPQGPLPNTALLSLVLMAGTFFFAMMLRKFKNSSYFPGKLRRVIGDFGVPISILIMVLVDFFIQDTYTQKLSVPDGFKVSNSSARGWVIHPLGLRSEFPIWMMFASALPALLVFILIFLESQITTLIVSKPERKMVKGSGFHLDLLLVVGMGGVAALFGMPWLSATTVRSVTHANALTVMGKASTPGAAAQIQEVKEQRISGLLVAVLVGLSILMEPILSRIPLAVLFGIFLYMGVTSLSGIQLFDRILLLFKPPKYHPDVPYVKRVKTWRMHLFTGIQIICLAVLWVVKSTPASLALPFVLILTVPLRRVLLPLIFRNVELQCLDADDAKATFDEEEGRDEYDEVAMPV

[3] = target: mouse erythroid Band 3 protein on wild-type mouse RBCs (mouse) (UniProt P04919); test: 32P-MSP119 on intact mouse RBCs in suspension; RBCs treated with neuraminidase, against untreated RBCs
[4] = target: human erythroid Band 3 protein (Anion Exchanger 1) on human RBCs (human) (UniProt P02730); test: 32P-MSP119 on intact human RBCs in suspension; RBCs treated with chymotrypsin 10 min, against untreated RBCs
[5] = target: human erythroid Band 3 protein (Anion Exchanger 1) on human RBCs (human) (UniProt P02730); test: 32P-MSP119 on intact human RBCs in suspension; RBCs treated with chymotrypsin 40 min, against untreated RBCs
[6] = target: mouse erythroid Band 3 protein on wild-type mouse RBCs (mouse) (UniProt P04919); test: 32P-MSP119 on intact mouse RBCs in suspension; RBCs treated with chymotrypsin 40 min, against untreated RBCs
[7] = target: T1, GST-MSP142 (Plasmodium falciparum, UniProt P04933); test: Solution-binding assay, GST-MSP142 on beads; set-up: species or system P. falciparum (FCB1 strain)
T1 construct: amino acids 1264-1639; made in house; host or cells: E. coli DH5α (pGEX6P-2)
T1 sequence (P04933 1264-1639): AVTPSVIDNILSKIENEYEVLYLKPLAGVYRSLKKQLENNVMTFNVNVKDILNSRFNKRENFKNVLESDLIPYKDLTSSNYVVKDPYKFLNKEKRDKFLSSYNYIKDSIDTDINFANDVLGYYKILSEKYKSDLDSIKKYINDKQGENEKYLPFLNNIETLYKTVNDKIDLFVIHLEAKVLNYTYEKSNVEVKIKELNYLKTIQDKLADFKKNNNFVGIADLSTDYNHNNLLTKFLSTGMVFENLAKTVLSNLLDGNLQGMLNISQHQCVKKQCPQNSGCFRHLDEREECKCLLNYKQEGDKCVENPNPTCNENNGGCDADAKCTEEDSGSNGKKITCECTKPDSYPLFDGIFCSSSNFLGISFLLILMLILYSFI
Description: (§1) MSP138 (SEQ ID NO:33), MSP142 (SEQ ID NO:34), and MSP119 (SEQ ID NO:35) genes were amplified from a P. falciparum (FCB1 strain) cDNA library (J. B. Dame) by PCR using the following primers: 5′-[…] (SEQ ID NO: 14, MSP138, sense, 3121-3133, Xhol), 5′-[…] (SEQ ID NO:15, MSP138, antisense, 4200-4193, NotI), 5′-[…] (SEQ ID NO:16, MSP142, sense, 4201-4218, XhoI), 5′-[…] (SEQ ID NO:17, MSP142, antisense, 5334-5321 NotI), 5′-[…]: (SEQ ID NO:18, MSP119, sense, 4993-5009 BamHI), 5′-[…] (SEQ ID NO:19, MSP119, antisense, 5334-5318, EcoRI). Similar cDNA libraries as well as CDNA pools are available to the public from MR4, ATCC (www.malaria.atcc.org).
(§2) Primers: 5′-[…] […] (SEQ ID NO:26, 6AB, antisense, 2640-2620, EcoRI).

[8] = tested on: GST-MSP138; test: Solution-binding assay, GST-MSP138 on beads; set-up: species or system P. falciparum (FCB1 strain); conditions: 32P-labeled 5BC 21, 42, 84, 168 μM
Description: as §1, §2

[9] = target: T2, GST-5ABC (Homo sapiens, UniProt P02730); test: Native MSP1 binding to GST-5ABC beads; conditions: Triton X-100 parasite extract, 22-24 h at 4° C.; GST beads as control
T2 construct: The 5ABC (amino acid 720-761), 5BC (731-761), and 6AB (807-842) genes were amplified from a human reticulocyte cDNA library; made in house; host or cells: E. coli (pGEX-2TK)
T2 sequence (P02730 720-761): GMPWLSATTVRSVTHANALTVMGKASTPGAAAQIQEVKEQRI

[10] = tested on: RBCs; conditions: literature reports; cited from earlier work
[11] = tested on: human RBCs fixed in methanol; conditions: GST-MSP142 1 μM, GST-MSP138 8 μM; GST alone did not bind
Description: (§3) RBCs freshly collected into citrate phosphate dextrose buffer were washed (3×) and resuspended in RPMI (20% hematocrit). Thin smears of RBCs on glass slides were allowed to air-dry and fixed in methanol (20-30 sec). The slides were washed with PBS (1×), blocked with 10% fetal bovine serum (FBS) in PBS (pH 7.4) for 1.5 h at 37° C., and again washed with PBS (5×, 10 min each). Fixed cells were incubated with GST-MSP142 (1 μM), GST-MSP138 (8 μM), or GST (9 μM) for 3.5 h at 37° C. in 10% FBS. Slide samples were washed with PBS (5×), incubated with goat anti-GST antibody (1:1,000, Amersham Pharmacia Biotech), washed again (5×), and incubated with rabbit anti-goat FITC-conjugated antibody (1:60, Sigma-Aldrich, St. Louis, Mo.). For visualizing spectrin, fixed cells treated with 10% FBS were incubated with a rabbit antibody raised against human spectrin (Sigma-Aldrich) followed by goat anti-rabbit FITC-conjugated antibody. All dilutions of proteins and antibodies were made in 10% FBS except FITC-conjugated antibodies.
(§4) First, the above-described RBC binding assay was performed using ^32P-labeled MSP119 and intact Band 3 (−/−) mouse RBCs in suspension. […] In the second method, we carried out an indirect immunofluorescence assay (IFA) using wild-type human and mouse RBCs and Band 3 (−/−) mouse RBCs fixed in methanol.

[12] = tested on: mouse RBCs fixed in methanol; conditions: GST-MSP142 1 μM, GST-MSP138 8 μM
Description: as §3, §4

[13] = target: T3, SV40 large T-antigen fused to GAL4 AD (pGADT7 vector), two-hybrid control (UniProt P03070 86-708); test: yeast two-hybrid assay (positive control)
T3 construct: Kit control; also called pGADT7-T
T3 sequence (P03070 86-708 limits assumed): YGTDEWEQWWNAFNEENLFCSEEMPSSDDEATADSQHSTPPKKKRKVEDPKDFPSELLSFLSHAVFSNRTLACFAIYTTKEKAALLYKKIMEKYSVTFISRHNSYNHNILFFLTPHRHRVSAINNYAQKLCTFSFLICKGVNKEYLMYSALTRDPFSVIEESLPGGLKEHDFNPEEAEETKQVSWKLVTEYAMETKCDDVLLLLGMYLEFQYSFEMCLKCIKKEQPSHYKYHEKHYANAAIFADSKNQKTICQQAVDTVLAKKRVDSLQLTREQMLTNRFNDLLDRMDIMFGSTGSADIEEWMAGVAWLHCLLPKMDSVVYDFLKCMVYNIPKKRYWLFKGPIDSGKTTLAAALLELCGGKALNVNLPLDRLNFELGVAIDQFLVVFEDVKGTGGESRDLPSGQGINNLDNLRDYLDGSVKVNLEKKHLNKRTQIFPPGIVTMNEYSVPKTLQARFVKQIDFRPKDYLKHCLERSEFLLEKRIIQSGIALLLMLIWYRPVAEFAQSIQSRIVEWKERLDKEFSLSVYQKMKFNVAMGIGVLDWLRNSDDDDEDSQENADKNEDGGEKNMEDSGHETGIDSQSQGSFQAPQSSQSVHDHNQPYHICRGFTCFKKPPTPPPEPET

[14] = target: GST-MSP142 (P. falciparum FCB1 MSP1 42 kDa fragment as GST fusion protein) (Plasmodium falciparum (FCB1 strain)) [GST: P08515]; test: solution-binding assay, 32P-labeled peptide on GST fusion beads
Sequence of GST-MSP142 (P. falciparum FCB1 MSP1 42 kDa fragment as GST fusion protein) (Plasmodium falciparum (FCB1 strain)) [GST: P08515] (P08515 whole entry, the tested form may be a part): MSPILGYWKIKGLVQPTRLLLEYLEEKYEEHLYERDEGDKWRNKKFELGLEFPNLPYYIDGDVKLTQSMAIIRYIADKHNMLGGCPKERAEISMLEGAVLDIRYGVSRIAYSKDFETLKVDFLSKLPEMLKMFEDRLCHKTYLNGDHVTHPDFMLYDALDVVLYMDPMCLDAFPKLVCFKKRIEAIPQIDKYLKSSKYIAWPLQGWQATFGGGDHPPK

[15] = target: GST-MSP138 (P. falciparum FCB1 MSP1 38 kDa fragment as GST fusion protein, C-terminal truncated forms) (Plasmodium falciparum (FCB1 strain)) [GST: P08515]; test: as above
Sequence of GST-MSP138 (P. falciparum FCB1 MSP1 38 kDa fragment as GST fusion protein, C-terminal truncated forms) (Plasmodium falciparum (FCB1 strain)) [GST: P08515] (P08515 whole entry, the tested form may be a part): as above

[16] = target: T3, SV40 large T-antigen fused to GAL4 AD …; test: yeast two-hybrid assay (negative control)

Sequence of mouse erythroid Band 3 protein on wild-type mouse RBCs (mouse) (P04919 whole entry): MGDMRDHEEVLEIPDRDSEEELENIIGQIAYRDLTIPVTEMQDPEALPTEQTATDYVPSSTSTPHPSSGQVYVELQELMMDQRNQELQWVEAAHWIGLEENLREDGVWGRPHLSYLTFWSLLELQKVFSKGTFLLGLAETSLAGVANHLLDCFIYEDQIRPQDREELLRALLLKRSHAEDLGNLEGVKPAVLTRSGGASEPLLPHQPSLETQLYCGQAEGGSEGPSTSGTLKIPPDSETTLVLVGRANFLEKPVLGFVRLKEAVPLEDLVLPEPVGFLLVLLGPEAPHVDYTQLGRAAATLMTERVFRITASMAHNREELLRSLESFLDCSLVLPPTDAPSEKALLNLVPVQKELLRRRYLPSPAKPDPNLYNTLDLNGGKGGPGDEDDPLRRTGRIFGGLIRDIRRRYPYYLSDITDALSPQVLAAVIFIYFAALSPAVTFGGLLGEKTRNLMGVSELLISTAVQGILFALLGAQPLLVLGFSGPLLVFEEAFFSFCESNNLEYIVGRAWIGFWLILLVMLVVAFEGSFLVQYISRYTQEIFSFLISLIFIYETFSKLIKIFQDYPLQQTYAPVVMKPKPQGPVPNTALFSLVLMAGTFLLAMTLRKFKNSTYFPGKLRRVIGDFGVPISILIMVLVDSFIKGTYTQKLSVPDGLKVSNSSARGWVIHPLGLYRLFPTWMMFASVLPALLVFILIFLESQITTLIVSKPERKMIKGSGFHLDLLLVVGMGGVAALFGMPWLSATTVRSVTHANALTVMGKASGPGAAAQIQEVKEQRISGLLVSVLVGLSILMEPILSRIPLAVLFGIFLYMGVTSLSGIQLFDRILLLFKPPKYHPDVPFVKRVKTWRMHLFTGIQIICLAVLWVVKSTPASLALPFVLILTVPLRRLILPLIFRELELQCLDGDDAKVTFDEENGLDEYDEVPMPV

32P-labeled MSP119 (P. falciparum FCB1 MSP1 19 kDa C-terminal fragment, GST removed with thrombin) (ligand)
reduction of radioactivity associated with Band 3 (-/-) mouse RBCs as compared to untreated wild-type mouse RBCs [1]: 72%
increase in ability to bind MSP119 as compared to the untreated RBCs [2]: 52%
increase in ability to bind MSP119 as compared to the untreated RBCs [3]: 51%
reduction in ability to bind MSP119 as compared to the untreated RBCs [4]: 30%
reduction in ability to bind MSP119 as compared to the untreated RBCs [5]: 37%
reduction in ability to bind MSP119 as compared to the untreated RBCs [6]: 41%

GMPWLSATTVRSVTHANALTVMGKASTPGAAAQIQEVKEQRI (not fully specified) [Peptide 5ABC, Recombinant human Band 3 peptide, amino acid 720-761, expressed as GST or GAL4 DNA-BD fusion]
binding to GST-MSP142 on beads ([7]; 32P-labeled 5ABC 10, 20, 40, 80 μM): concentration-dependent manner
Kd ([7]; 32P-labeled peptide, pH 7.4, 25° C., 3.5 h): 36 µM
binding to GST-MSP138 on beads [8]: specifically bound

MSP1: P. falciparum merozoite surface protein-1, native full-length
binding of radiolabeled native parasite protein to GST-5ABC beads [9]: bound specifically to the 5ABC domain
binding to RBCs (earlier studies) [10]: bound to RBCs in sialic acid-dependent manner

B1: MSP142: 42 kDa proteolytic fragment of P. falciparum MSP1 (FCB1 strain) (protein)
chain: AISVTMDNILSGFENEYDVIYLKPLAGVYRSLKKQIEKNIFTFNLNLNDILNSRLKKRKYFLDVLESDLMQFKHISSNEYIIEDSFKLLNSEQKNTLLKSYKYIKESVENDIKFAQEGISYYEKVLAKYKDDLESIKKVIKEEKEKFPSSPPTTPPSPAKTDEQKKESKFLPFLTNIETLYNNLVNKIDDYLINLKAKINDCNVEKDEAHVKITKLSDLKAIDDKIDLFKNPYDFEAIKKLINDDTKKDMLGKLLSTGLVQNFPNTIISKLIEGKFQDMLNISQHQCVKKQCPENSGCFRHLDEREECKCLLNYKQEGDKCVENPNPTCNENNGGCDADATCTEEDSGSSRKKITCECTKPDSYPLFDGIFCS
binding of radiolabeled native parasite protein to GST-5ABC beads [9]: bound specifically to the 5ABC domain
binding to wild-type human RBCs (IFA) [11]: bound
binding to Band 3 (−/−) mouse RBCs (IFA) [12]: neither GST-MSP142, GST-MSP138, nor GST alone bound
binding to wild-type mouse RBCs (IFA) ([12]; GST alone did not bind): bound

B2: p53 fused to GAL4 DNA-BD (pGBKT7 vector), two-hybrid control (other)
chain: MKLLSSIEQACDICRLKKLKCSKEKPKCAKCLKNNWECRYSPKTKRSPLTRAHLTEVESRLERLEQLFLLIFPREDLDMILKMDSLQDIKALLTGLFVQDNVNKDAVTDRLASVETDMPLTLRQHRISATSSSEESSNKGQRQLTVSPVTETPGPVAPAPATPWPLSSFVPSQKTYQGNYGFHLGFLQSGTAKSVMCTYSPPLNKLFCQLAKTCPVQLWVSATPPAGSRVRAMAIYKKSQHMTEVVRRCPHHERCSDGDGLAPPQHLIRVEGNLYPEYLEDRQTFRHSVVVPYEPPEAGSEYTTIHYKYMCNSSCMGGMNRRPILTIITLEDSSGNLLGRDSFEVRVCACPGRDRRTEEENFRKKEVLCPELPPGSAKRALPTCTSASPPQKKKPLDGEYFTLKIRGRKRFEMFRELNEALELKDAHATEESGDSRAHSSYLKTKKGQSTSRHKKTMVKKVGPDSD
notes: Kit control; also called pGBKT7-53
binding result [13]: binds

GMPWLSATTVRSVTHANALTVMGKASTPGAAAQIQEVKEQRI (peptide, not shown: small tags and cut ends, modifications not checked) [32P-labeled 5ABC (recombinant human Band 3 amino acid 720-761, GST removed with thrombin)]
Kd [14]: 36 µM

SVTHANALTVMGKASTPGAAAQIQEVKEQRI (peptide, not shown: small tags and cut ends, modifications not checked) [32P-labeled 5BC (recombinant human Band 3 amino acid 731-761, GST removed with thrombin)]
Kd [15]: 67 µM

B3: Lamin C fused to GAL4 DNA-BD (pGBKT7 vector), two-hybrid control (other)
chain: MKLLSSIEQACDICRLKKLKCSKEKPKCAKCLKNNWECRYSPKTKRSPLTRAHLTEVESRLERLEQLFLLIFPREDLDMILKMDSLQDIKALLTGLFVQDNVNKDAVTDRLASVETDMPLTLRQHRISATSSSEESSNKGQRQLTVSSEEVVSREVSGIKAAYEAELGDARKTLDSVAKERARLQLELSKVREEFKELKARNTKKEGDLIAAQARLKDLEALLNSKEAALSTALSEKRTLEGELHDLRGQVAKLEAALGEAKKQLQDEMLRRVDAENRLQTMKEELDFQKNIYSEELRETKRRHETRLVEID
notes: Kit control
binding result [16]: no binding
